Assay results reported in the supplement of paper PMC9170038.

Test system: MS2 coat protein
Assay: apparent KD of MS2 coat protein; higher = weaker reporter binding
Conditions: Eterna round: R107
Outline: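 Designed RNA switches were made by on-chip transcription from Illumina sequencing clusters and then titrated with SNAP-549-labelled MS2 coat protein. Twofold steps ran from 0.7 or 1.5 nM to 3 µM, each lasting 0.8–1.5 h early and 10–20 min late, in 100 mM Tris-HCl pH 7.5, 80 mM KCl, 4 mM MgCl2, without or with constant ligand. Apparent KD is the per-design median of normalised cluster binding-curve fits.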

[1] = input ligand: theophylline 20 uM
[2] = input ligand: tryptophan 2.4 mM
[3] = input ligand: theophylline 2 mM

| Sequence | apparent KD of MS2 coat protein (input ligand: arginine 13.2 mM) | apparent KD of MS2 coat protein [1] | apparent KD of MS2 coat protein [2] | apparent KD of MS2 coat protein (input ligand: none) | apparent KD of MS2 coat protein [3] |
| --- | --- | --- | --- | --- | --- |
| CCUCGAUUUUGAUACCGAUAUGUCUUUGAUACCAGCGCCAUAGUACGCCCUUGGCAGCAAGAAACAUGAGGAUCACCCAUGUUAA [theeternabot_exclusion_MS2_Theo_A_36] | 16.9 nM | 26.4 nM | 16.7 nM | – | – |
| UGGUCCGUCGGAAGGAGCGACAUGAGGAUCACCCAUGUCUCCCGUUAUGGGAGUUCUUUAGGUCAGGUAGGUCGCCGGCGGGUCA [#1 Exclusion - Arginine B Attempt #12 (Inspired by Omei)] | 91.6 nM | 209 nM | 144 nM | 111 nM | 220 nM |
| AGCGCGAAUAGAUCCAAAGUUAUUAGUGAGCGAGGACCGGUACGGCCGCCACUCGUGGCUCUACAUGAGGAUCACCCAUGUACAU [theeternabot_exclusion_MS2_Trp_A_10] | 52.2 nM | 234 nM | – | – | 384 nM |
| GACCUUGCCUGAAGGAGCGAGGUAAAUAGGGUUGAGCAUACAUGAGGAUCACCCAUGUGGCCUCAGGUAGGUCGCAGGUAGGACA [Exclusion Arginine B GF30] | 97.1 nM | 224 nM | 114 nM | 114 nM | 189 nM |
| GCAUUACAUGAGGAUCACCCAUGUCUAGAUACCAGAUUUGUUUGAAUCCCUUGGCAGCUAGUGGACCACCGUACACGACAUACUA [theeternabot_sameState_MS2_Theo_A_17] | 29.8 nM | 47.1 nM | 44 nM | – | – |
| GUCUUGGGAUCGGCCGCCACUACAUGAGGAUCACCCAUGUGGACAAAUAGGGUUUUUAAGCUCGGUAGGACCGGGAUUCGGACAU [Marasosoge] | 12.9 nM | 16.7 nM | – | – | 16.3 nM |
| AAACAUUGCUGCGAUACCAGACAUGAGGAUCACCCAUGUACCAAGGUAAGAAAAUAACAUGUCCCUUGGCAGCGCAGCAAUGAAA [MAT - Exclusion Theophlline B - Mod of Eli - D2] | 19.2 nM | 33.4 nM | 15.8 nM | – | – |
| AGAGCAUUGACGGCCGCCACUCGUGUCACAUGAGGAUCACCCAUGUGACGGGUGAUCGCCCGGUUGAGGACCGGGUCAAUGCUCA [Omei Tryp SS B v8] | 10.4 nM | 13 nM | – | – | 11.2 nM |
| ACAUGAGGAUCACCCAUGUAAAUAACGGAAGGAGCGUGCAAAAGCACAGGUAGGUCGCCGAUAUAAAUAUUGGGUAUUAUAUUUU [AstrosExyArgA#3] | 30.4 nM | 40.3 nM | 29.6 nM | 30.4 nM | 31.7 nM |
| AAAAUAUAGACGGCCGCCACUAUAAACAUGAGGAACAUGAGGAUCACCCAUGUAUGAGGAUCACCUAGGACCGGGUCAUAUAAAA [AstrosExyTryB#1] | 28.6 nM | 55.4 nM | 40.2 nM | 43 nM | 41.7 nM |
| AUAUUAGACCUGGAUACCAGCGACAUGAGGAUCACCCAUGUAUGUGCAUCAGCCAUGAUAUGCCCUUGGCAGCCACCGAGGUCGU [YYTMULLIN] | 14.1 nM | 17.9 nM | 15.1 nM | – | – |
| CCCUGGGUGGGAAGGAGCGCAUAGUGAACAUGAGGAUCACCCAUGUGCAGACGUGAGUCAUUGCAGGUAGGUCGCCCACCCAGGG [SS-ArgB22] | 10.2 nM | 21.4 nM | 20.9 nM | 18.9 nM | 30.2 nM |
| GGAUGAAACUGAAGGAGCGAGAUCACAAGAUUGGGUCUAACAUGAGGAUCACCCAUGUAAUCUCAGGUAGGUCGCAGUGUCCCUU [Exclusion Arginine B GF 12] | 33 nM | 42 nM | 31.6 nM | 26.6 nM | 43.5 nM |
| UGUAUGGACUGAAGGAGCGGGUUGAUAACAUGAGGAUCACCCAUGUAAAAGGCGAAAGCCGCCCAGGUAGGUCGCAGUCCAUACU | 4.19 nM | 19.5 nM | 10.9 nM | 10.1 nM | 13.1 nM |
| UGGGUUGGACCAGGAAAUGGUCUGACGCACCGAGGACCGGUACGGCCGCCACUCGGCCGUACAUGAGGAUCACCCAUGUCGGUGU [#1 Same State - Tryptophan A Attempt #13 (HarryS)] | 107 nM | 486 nM | 740 nM | 376 nM | 1170 nM |
| CUGCCAUGCAGAGAUACCAGUGAGCUCAGAACAUGAGGAUCACCCAUGUAGGUUGCCGAUCACCCUUGGCAGCUCUGCAUGGCAG [*$+%!] | 38.7 nM | 28.4 nM | 29.6 nM | 30.8 nM | 10.9 nM |
| GAAUCUACAAACGAUACCAGAUCCGGCUGCCACAUGAGGAUCACCCAUGUCUAGCGACUCAUCCCUUGGCAGCGUGUGCAUCCCG [theeternabot_sameState_MS2_Theo_B_37] | 147 nM | 612 nM | 629 nM | – | – |
| AUGCCGGGCCGAAGGAGCGCAAUAGAAUGACAUGAGGAUCACCCAUGUGUGUGAUGUGGGUUGCAGGUAGGUCGCGGCCCGGCAU [#12 Exclusion - Arginine B] | 17.6 nM | 80.2 nM | 68.3 nM | 42.1 nM | 62.7 nM |
| UAUCCACAUGAGGAUCACCCAUGUAGGGAAGGAGCGGUGGAUGCACCAGGUAGGUCGCCUUGCUGAGGACAGCCGGUGGAUUCGU [Exclusion - Arginine A (Freestyle 27)] | 29 nM | 59.6 nM | 32.8 nM | 31.9 nM | 46.7 nM |
| UACAGCAGUACGGCCGCCACUCUAAGAUUGCGCGUUUAGGCCAUACAUGAGGAUCACCCAUGUCCGAGGACCGGGUACAGGAAUU [theeternabot_sameState_MS2_Trp_B_29] | 88.3 nM | 416 nM | 89.2 nM | 185 nM | 502 nM |
| UGUAAUGGGAUCAACCCAUGAGAGUCUGAAGGAGCGAUCGUAAGAUCAGGUAGGUCGCGGGAGACAUGAGGAUCACCCAUGUAUA [#23 Exclusion - Arginine A] | 27.2 nM | 46.3 nM | 39.7 nM | 41 nM | 44.3 nM |
| ACGAUAGGACAUGAGGAUCACCCAUGUGAUACCAGCCUGGAAACAGGCCCUUGGCAGCACAAAUACUCCAGAAACCUAUCGAAUA [TheoAX2 #MicroSwitchBubble] | 124 nM | 294 nM | 273 nM | – | – |
| UUUAACGGGCACGAUACCAGCGACAUGAGGAUCACCCAUGUAAACGCGGUGACGGUCUGUUGCCCUUGGCAGCGUGCAAAAUAAU [Zaquarar] | 43 nM | 157 nM | 48.5 nM | 67.6 nM | 94.3 nM |
| GCUGUAAGUGCAGAUACCAGCAUGUUAUAUUUCUAAUGACAUGAGGAUCACCCAUGUAAAUGCCCUUGGCAGCUGCACUUACAGC [SSTHB #6] | 15.6 nM | 21.4 nM | 18.7 nM | – | – |
| AGCACACAUCCUGAUACCAGAGACAUGAGGAUCACCCAUGUCCGAUCGUCCUGCCUCAGACUCCCUUGGCAGCAGGAUGUGUGCU [Exclusion Theophylline B GF7] | 12.5 nM | 18.6 nM | 13.4 nM | – | – |
| AGAAUAUAGUCGGCCGCCACUCUACAUACAUGAGGAUCACCCAUGUUUACAUAGUGGAAACACAUGAGGACCGGGACAUAGGCAU [#16 Same State - Tryptophan B] | 8.17 nM | 13.2 nM | 9.98 nM | 12.2 nM | 11 nM |
| GCAACGCUGUCGGCCGCCACUUUUACAUUGGCCGUGCUGUCUCUACAUGAGGAUCACCCAUGUGGAAGGACCGGGACAGCACACU [Arzaleer] | 21.2 nM | 39.6 nM | – | – | 44.7 nM |
